Where a chain is given by its changes, count along the chain named.
B1: AAV-binding protein No. 11 (Tyr355Asn) (receptor)
chain: MGSAGESVQITLPKNEVQLNAYVLQEPPKGETYTYDWQLITHPRDNSGEMEGKHSQILKLSKLTPGLYEFKVIVEGQNAHGEGYVNVTVKPEPRKNRPPIAIVSPQFQEISLPTTSTVIDGSQSTDDDKIVQYHWEELKGPLREEKISEDTAILKLSKLVPGNYTFSLTVVDSDGATNSTTANLTVNKAVDHHHHHH
B2: AAV-binding protein No. 14 (Gln365Arg) (receptor)
chain: B1 chain with N46Y, Q56R
B3: AAV-binding protein No. 44 (Gln327Arg, Lys338Arg, Leu348Pro) (receptor)
chain: B1 chain with Q18R, K29R, L39P, N46Y
B4: AAV-binding protein No. 56 (Asn324Ser, Thr341Ala, Leu369Pro, Phe416Ser) (receptor)
chain: B1 chain with N15S, T32A, N46Y, L60P, F107S
B5: AAV-binding protein No. 37 (Gln365Arg, His389Gln) (receptor)
chain: B1 chain with N46Y, Q56R, H80Q
B6: AAV-binding protein No. 19 (Val396Ala) (receptor)
chain: B1 chain with N46Y, V87A
B7: AAV-binding protein No. 28 (Tyr331Cys, Glu384Gly) (receptor)
chain: B1 chain with Y22C, N46Y, E75G
B8: AAV-binding protein No. 17 (Phe379Ser) (receptor)
chain: B1 chain with N46Y, F70S
B9: AAV-binding protein No. 54 (His363Leu, Ser364Pro, His389Leu) (receptor)
chain: B1 chain with N46Y, H54L, S55P, H80L
B10: AAV-binding protein No. 13 (Gly357Cys) (receptor)
chain: B1 chain with N46Y, G48C
B11: AAV-binding protein No. 40 (Phe379Ser, Lys455Arg) (receptor)
chain: B1 chain with N46Y, F70S, K146R
B12: AAV-binding protein No. 35 (Gln347Leu, Thr373Ala) (receptor)
chain: B1 chain with Q38L, N46Y, T64A
B13: AAV-binding protein No. 25 (Asn324Asp, Tyr355His) (receptor)
chain: B1 chain with N15D, N46H
B14: AAV-binding protein No. 52 (Leu348Pro, Leu376Pro, Val396Ala) (receptor)
chain: B1 chain with L39P, N46Y, L67P, V87A
B15: AAV-binding protein No. 38 (Gln365Arg, Gln415Leu) (receptor)
chain: B1 chain with N46Y, Q56R, Q106L
B16: AAV-binding protein No. 48 (Ala330Gly, Gln347Pro, Lys371Glu) (receptor)
chain: B1 chain with A21G, Q38P, N46Y, K62E
B17: AAV-binding protein No. 31 (Tyr342His, Ile349Thr) (receptor)
chain: B1 chain with Y33H, I40T, N46Y
B18: AAV-binding protein No. 15 (Leu367Pro) (receptor)
chain: B1 chain with N46Y, L58P
B19: AAV-binding protein No. 55 (Gln365Arg, Ser370Ala, Glu391Lys) (receptor)
chain: B1 chain with N46Y, Q56R, S61A, E82K
B20: AAV-binding protein No. 12 (Ser356Cys) (receptor)
chain: B1 chain with N46Y, S47C
B21: AAV-binding protein No. 50 (Val332Gln, Tyr342Cys, Val412Ala) (receptor)
chain: B1 chain with V23Q, Y33C, N46Y, V103A
B22: AAV-binding protein No. 46 (Asn329Asp, Ile366Thr, Lys368Arg) (receptor)
chain: B1 chain with N20D, N46Y, I57T, K59R
B23: AAV-binding protein No. 24 (Asn492Asp) (receptor)
chain: B1 chain with N46Y, N183D
B24: AAV-binding protein No. 18 (Tyr393Cys) (receptor)
chain: B1 chain with N46Y, Y84C
B25: AAV-binding protein No. 27 (Tyr331Cys, Leu376Pro) (receptor)
chain: B1 chain with Y22C, N46Y, L67P
B26: AAV-binding protein No. 41 (Glu453Gly, Ser476Arg) (receptor)
chain: B1 chain with N46Y, E144G, S167R
B27: AAV-binding protein No. 20 (Lys399Glu) (receptor)
chain: B1 chain with N46Y, K90E
B28: AAV-binding protein No. 22 (Leu477Pro) (receptor)
chain: B1 chain with N46Y, L168P
B29: AAV-binding protein No. 21 (Tyr442Phe) (receptor)
chain: B1 chain with N46Y, Y133F
B30: AAV-binding protein No. 42 (Ile319Phe, Pro322Leu, Lys448Arg) (receptor)
chain: B1 chain with I10F, P13L, N46Y, K139R
B31: AAV-binding protein No. 23 (Asn487Asp) (receptor)
chain: B1 chain with N46Y, N178D
B32: AAV-binding protein No. 26 (Asn329Tyr, Lys399Arg) (receptor)
chain: B1 chain with N20Y, N46Y, K90R
B33: AAV-binding protein No. 39 (Ile366Thr, Gln441Leu) (receptor)
chain: B1 chain with N46Y, I57T, Q132L
B34: AAV-binding protein No. 51 (Leu333Pro, Pro337Leu, Thr350Met) (receptor)
chain: B1 chain with L24P, P28L, T41M, N46Y
B35: AAV-binding protein No. 57 (Gln334Arg, Val381Ala, His389Arg, Tyr393Cys) (receptor)
chain: B1 chain with Q25R, N46Y, V72A, H80R, Y84C
B36: AAV-binding protein No. 34 (Trp346Arg, Glu458Gly) (receptor)
chain: B1 chain with W37R, N46Y, E149G
B37: AAV-binding protein No. 33 (Tyr344His, His363Arg) (receptor)
chain: B1 chain with Y35H, N46Y, H54R
B38: AAV-binding protein No. 103 (AVR8g + Glu340Val) (receptor)
chain: B1 chain with V8D, E31V, Y33C, N46Y, K53E, K62N, G81S, K90E, S167R, N178D
B39: AAV-binding protein No. 110 (AVR8g + Glu360Val) (receptor)
chain: B1 chain with V8D, Y33C, N46Y, E51V, K53E, K62N, G81S, K90E, S167R, N178D
B40: AAV-binding protein No. 117 (AVR8g + Leu376Pro) (receptor)
chain: B1 chain with V8D, Y33C, N46Y, K53E, K62N, L67P, G81S, K90E, S167R, N178D
B41: AAV-binding protein No. 114 (AVR8g + Leu372Pro) (receptor)
chain: B1 chain with V8D, Y33C, N46Y, K53E, K62N, L63P, G81S, K90E, S167R, N178D
B42: AAV-binding protein No. 106 (AVR8g + Tyr355Cys) (receptor)
chain: B1 chain with V8D, Y33C, N46C, K53E, K62N, G81S, K90E, S167R, N178D
B43: AAV-binding protein No. 112 (AVR8g + Ser364Leu) (receptor)
chain: B1 chain with V8D, Y33C, N46Y, K53E, S55L, K62N, G81S, K90E, S167R, N178D
B44: AAV-binding protein No. 111 (AVR8g + Lys(Glu)362Gly) (receptor)
chain: B1 chain with V8D, Y33C, N46Y, K53G, K62N, G81S, K90E, S167R, N178D
notes: Glu362 of AVR8g replaced by Gly
B45: AAV-binding protein No. 109 (AVR8g + Glu360Lys) (receptor)
chain: B1 chain with V8D, Y33C, N46Y, E51K, K53E, K62N, G81S, K90E, S167R, N178D
B46: AAV-binding protein No. 105 (AVR8g + Arg353Cys) (receptor)
chain: B1 chain with V8D, Y33C, R44C, N46Y, K53E, K62N, G81S, K90E, S167R, N178D
B47: AAV-binding protein No. 108 (AVR8g + Met359Leu) (receptor)
chain: B1 chain with V8D, Y33C, N46Y, M50L, K53E, K62N, G81S, K90E, S167R, N178D
B48: AAV-binding protein No. 104 (AVR8g + Tyr344Phe) (receptor)
chain: B1 chain with V8D, Y33C, Y35F, N46Y, K53E, K62N, G81S, K90E, S167R, N178D
B49: AAV-binding protein No. 121 (AVR8g + Val381Ala) (receptor)
chain: B1 chain with V8D, Y33C, N46Y, K53E, K62N, V72A, G81S, K90E, S167R, N178D
B50: AAV-binding protein No. 118 (AVR8g + Glu378Gly) (receptor)
chain: B1 chain with V8D, Y33C, N46Y, K53E, K62N, E69G, G81S, K90E, S167R, N178D
B51: AAV-binding protein No. 119 (AVR8g + Phe379Ser) (receptor)
chain: B1 chain with V8D, Y33C, N46Y, K53E, K62N, F70S, G81S, K90E, S167R, N178D
B52: AAV-binding protein No. 120 (AVR8g + Lys380Glu) (receptor)
chain: B1 chain with V8D, Y33C, N46Y, K53E, K62N, K71E, G81S, K90E, S167R, N178D
B53: AAV-binding protein No. 115 (AVR8g + Leu372Gln) (receptor)
chain: B1 chain with V8D, Y33C, N46Y, K53E, K62N, L63Q, G81S, K90E, S167R, N178D
B54: AAV-binding protein No. 113 (AVR8g + Ile366Thr) (receptor)
chain: B1 chain with V8D, Y33C, N46Y, K53E, I57T, K62N, G81S, K90E, S167R, N178D
B55: AAV-binding protein No. 107 (AVR8g + Ser356Cys) (receptor)
chain: B1 chain with V8D, Y33C, N46Y, S47C, K53E, K62N, G81S, K90E, S167R, N178D
B56: AAV-binding protein No. 116 (AVR8g + Thr373Ala) (receptor)
chain: B1 chain with V8D, Y33C, N46Y, K53E, K62N, T64A, G81S, K90E, S167R, N178D

What follows are binders tested against T1, VLP2 (virus-like particles of AAV2) (AAV2, UniProt P03135 1-735; P03135 1-598; P03135 1-533) (assay: ELISA on VLP2; binding after 43°C 15 min / untreated).
T1 construct: Empty AAV2 capsid; background says about 60 protein molecules, VP1:VP2:VP3 = 1:1:10; Immobilised on the ELISA plate
T1 sequence (P03135 whole entry, chain 1 of 3): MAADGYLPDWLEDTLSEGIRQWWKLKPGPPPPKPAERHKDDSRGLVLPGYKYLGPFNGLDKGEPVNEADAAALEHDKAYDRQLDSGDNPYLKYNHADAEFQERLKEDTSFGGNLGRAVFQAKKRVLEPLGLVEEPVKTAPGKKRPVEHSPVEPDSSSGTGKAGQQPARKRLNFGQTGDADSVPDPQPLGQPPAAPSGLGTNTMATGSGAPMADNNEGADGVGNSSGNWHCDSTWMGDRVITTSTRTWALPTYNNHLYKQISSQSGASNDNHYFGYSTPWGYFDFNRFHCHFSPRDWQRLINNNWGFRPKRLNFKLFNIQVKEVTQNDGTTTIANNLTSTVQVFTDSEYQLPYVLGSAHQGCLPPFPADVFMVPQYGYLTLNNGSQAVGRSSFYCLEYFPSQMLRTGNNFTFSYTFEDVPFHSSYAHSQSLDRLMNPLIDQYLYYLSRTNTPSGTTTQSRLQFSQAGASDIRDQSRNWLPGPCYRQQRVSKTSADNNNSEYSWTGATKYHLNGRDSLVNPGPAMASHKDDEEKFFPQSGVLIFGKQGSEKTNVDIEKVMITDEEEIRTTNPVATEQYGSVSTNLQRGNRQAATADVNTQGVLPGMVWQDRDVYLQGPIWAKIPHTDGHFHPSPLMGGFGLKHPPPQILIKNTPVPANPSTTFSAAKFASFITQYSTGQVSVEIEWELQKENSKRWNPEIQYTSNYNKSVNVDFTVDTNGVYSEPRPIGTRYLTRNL
T1 sequence (P03135 139-735, tags left off, chain 2 of 3): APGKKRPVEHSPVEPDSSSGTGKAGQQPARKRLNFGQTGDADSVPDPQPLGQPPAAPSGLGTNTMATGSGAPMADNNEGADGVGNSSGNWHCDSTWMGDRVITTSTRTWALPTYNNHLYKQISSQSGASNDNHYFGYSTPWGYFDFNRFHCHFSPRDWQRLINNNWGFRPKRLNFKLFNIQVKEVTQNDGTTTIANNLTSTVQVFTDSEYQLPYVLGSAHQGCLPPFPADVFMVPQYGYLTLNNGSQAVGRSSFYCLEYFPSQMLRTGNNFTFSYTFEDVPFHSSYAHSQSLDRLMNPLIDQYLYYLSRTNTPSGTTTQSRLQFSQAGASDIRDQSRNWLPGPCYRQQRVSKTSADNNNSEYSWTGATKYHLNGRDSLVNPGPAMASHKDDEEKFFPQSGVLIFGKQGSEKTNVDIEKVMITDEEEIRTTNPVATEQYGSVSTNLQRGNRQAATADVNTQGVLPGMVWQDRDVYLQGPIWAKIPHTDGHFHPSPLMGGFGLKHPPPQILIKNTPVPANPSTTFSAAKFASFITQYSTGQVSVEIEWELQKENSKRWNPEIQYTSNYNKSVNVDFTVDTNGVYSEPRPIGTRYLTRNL
T1 sequence (P03135 203-735, chain 3 of 3): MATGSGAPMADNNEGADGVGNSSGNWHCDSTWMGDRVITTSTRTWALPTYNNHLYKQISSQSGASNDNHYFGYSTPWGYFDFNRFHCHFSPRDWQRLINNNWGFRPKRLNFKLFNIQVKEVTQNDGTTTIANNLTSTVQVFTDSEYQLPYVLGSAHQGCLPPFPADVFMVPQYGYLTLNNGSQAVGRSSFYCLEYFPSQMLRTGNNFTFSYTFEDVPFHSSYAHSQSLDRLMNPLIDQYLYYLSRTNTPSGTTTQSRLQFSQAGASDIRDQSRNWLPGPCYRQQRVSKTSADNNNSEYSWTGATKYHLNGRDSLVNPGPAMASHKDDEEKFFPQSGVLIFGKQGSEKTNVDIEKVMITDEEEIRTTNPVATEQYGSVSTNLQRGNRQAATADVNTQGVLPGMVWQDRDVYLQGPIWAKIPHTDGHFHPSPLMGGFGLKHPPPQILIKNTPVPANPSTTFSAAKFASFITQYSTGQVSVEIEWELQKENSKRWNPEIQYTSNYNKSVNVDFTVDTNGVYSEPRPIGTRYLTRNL

Point of comparison: B13, “Residual activity [%]” value 77.6%. Against it:
- B1 — higher, 80.6%
- B2 — lower, 57.7%
- B3 — lower, 76.1%
- B4 — higher, 81.3%
- B5 — lower, 70.1%
- B6 — lower, 62.3%
- B7 — higher, 83.7%
- B8 — higher, 80.9%
- B9 — higher, 87.2%
- B10 — higher, 97%
- B11 — lower, 77.4%
- B12 — higher, 85.9%
- B14 — higher, 80.9%
- B15 — lower, 65.3%
- B16 — higher, 88.4%
- B17 — lower, 66.8%
- B18 — lower, 56.9%
- B19 — lower, 65.7%
- B20 — higher, 84.6%
- B21 — higher, 80.3%
- B22 — lower, 49.3%
- B23 — lower, 63.2%
- B24 — higher, 86.4%
- B25 — lower, 74.4%
- B26 — lower, 56.1%
- B27 — lower, 63.3%
- B28 — higher, 79.9%
- B29 — lower, 48.7%
- B30 — lower, 56.6%
- B31 — lower, 58.3%
- B32 — lower, 61.9%
- B33 — lower, 65.5%
- B34 — lower, 66.7%
- B35 — higher, 79%
- B36 — higher, 78.1%
- B37 — higher, 82.2%

Each binder was assayed against T1, VLP2 (virus-like particles of AAV2) (assay: ELISA on VLP2; binding after pH 10.0 41.2°C 15 min / untreated).

Point of comparison: B52, “Residual activity [%]” value 59.5%. Against it:
- B38 — lower, 35%
- B39 — lower, 33.3%
- B40 — higher, 76.7%
- B41 — higher, 91.6%
- B42 — higher, 63.8%
- B43 — lower, 45.3%
- B44 — lower, 41.1%
- B45 — lower, 40.2%
- B46 — higher, 62.1%
- B47 — lower, 32.4%
- B48 — lower, 40.3%
- B49 — higher, 89.9%
- B50 — higher, 66.7%
- B51 — lower, 24.3%
- B53 — higher, 72.8%
- B54 — lower, 41.4%
- B55 — higher, 67.6%
- B56 — lower, 57.8%

Source: US20220402995A1 (TOSOH, published 2022)
